Test results reported in FireProtDB (doi:10.1016/j.ijbiomac.2008.12.016).
Values joined by “and” are separate entries in the source; they are usually repeats but may differ in a detail not shown here. Equal entries are not always repeated.

Details: Oryctolagus cuniculus, pH 8, CD, Tris_HCl 10 mM; for denaturant midpoint (higher = more stable) / unfolding free energy: 25 °C, GdnHCl, reversible: Yes; for unfolding free energy: transition: 3; for Tm / change of melting temperature, mutant - wild type (higher = more stable): Thermal, reversible: No

Creatine kinase M-type D122A, P00563, sequence (P00563 whole entry D122A): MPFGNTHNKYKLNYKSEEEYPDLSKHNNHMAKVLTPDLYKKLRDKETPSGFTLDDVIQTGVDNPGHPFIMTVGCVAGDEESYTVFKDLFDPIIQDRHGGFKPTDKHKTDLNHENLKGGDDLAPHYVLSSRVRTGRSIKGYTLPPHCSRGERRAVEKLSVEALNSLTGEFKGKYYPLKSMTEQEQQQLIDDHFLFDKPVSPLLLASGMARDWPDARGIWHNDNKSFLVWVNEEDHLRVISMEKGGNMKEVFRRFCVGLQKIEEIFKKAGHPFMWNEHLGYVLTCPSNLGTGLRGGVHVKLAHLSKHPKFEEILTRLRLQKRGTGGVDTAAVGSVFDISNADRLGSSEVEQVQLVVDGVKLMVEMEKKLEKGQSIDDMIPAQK
Creatine kinase M-type D122N, P00563, sequence (P00563 whole entry D122N): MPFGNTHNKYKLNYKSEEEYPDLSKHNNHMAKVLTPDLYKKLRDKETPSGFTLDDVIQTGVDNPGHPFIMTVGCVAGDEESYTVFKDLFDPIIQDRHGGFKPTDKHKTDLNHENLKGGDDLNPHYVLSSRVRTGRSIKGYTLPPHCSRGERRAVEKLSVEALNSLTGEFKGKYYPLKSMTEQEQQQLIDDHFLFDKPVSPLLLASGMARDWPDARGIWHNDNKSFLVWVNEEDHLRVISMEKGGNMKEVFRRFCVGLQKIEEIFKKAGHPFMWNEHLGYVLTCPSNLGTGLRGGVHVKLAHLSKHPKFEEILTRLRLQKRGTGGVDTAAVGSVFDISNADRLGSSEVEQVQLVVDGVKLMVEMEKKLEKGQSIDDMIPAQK
Creatine kinase M-type wild type, P00563, sequence (P00563 whole entry): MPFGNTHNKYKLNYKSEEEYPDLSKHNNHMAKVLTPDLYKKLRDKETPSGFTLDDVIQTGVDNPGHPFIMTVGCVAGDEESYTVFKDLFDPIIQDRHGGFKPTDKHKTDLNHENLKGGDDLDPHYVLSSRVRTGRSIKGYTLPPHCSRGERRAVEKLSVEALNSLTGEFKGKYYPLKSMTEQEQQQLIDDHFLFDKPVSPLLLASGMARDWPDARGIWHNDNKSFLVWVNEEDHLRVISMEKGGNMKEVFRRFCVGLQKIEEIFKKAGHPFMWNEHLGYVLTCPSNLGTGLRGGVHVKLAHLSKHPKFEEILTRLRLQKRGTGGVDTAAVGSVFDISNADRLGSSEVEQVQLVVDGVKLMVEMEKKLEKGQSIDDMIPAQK

Substance: Creatine kinase M-type D122A, P00563
- denaturant midpoint (higher = more stable) (structure 2CRK): 0.24 M
- unfolding free energy (structure 2CRK): 3.59 kcal/mol
- Tm (structure 2CRK): 59.1 °C
- change of melting temperature, mutant - wild type (higher = more stable) (structure 2CRK): 0 °C

Substance: Creatine kinase M-type D122N, P00563
- denaturant midpoint (higher = more stable) (structure 2CRK): 0.29 M
- unfolding free energy (structure 2CRK): 3.59 kcal/mol and 2.87 kcal/mol
- Tm (structure 2CRK): 61.2 °C
- change of melting temperature, mutant - wild type (higher = more stable) (structure 2CRK): 2.1 °C

Substance: Creatine kinase M-type wild type, P00563
- unfolding free energy: 3.59 kcal/mol and 4.06 kcal/mol
- Tm: 59.1 °C
